This is an account of results in the supplement of paper PMC9112550, “Optimization of the antimicrobial peptide Bac7 by deep mutational scanning” (BMC Biology, 2022).

This series relates to Escherichia coli TOP10. Put plainly: shrunken log2 fold change of peptide-encoding DNA abundance (4.5 h post-induction vs induction); higher = less antimicrobial activity (less host growth inhibition). The settings on record: time post-induction: 4.5 h; library: site-saturation at positions 5, 18, 19, 20.
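Note: peptides expressed intracellularly from a pBAD plasmid library in pooled LB shake-flask culture, induced with 0.3% L-arabinose, DNA abundance read by NGS, three biological replicates, DESeq2 with apeglm shrinkage.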

RRIRTRPPRLPRPRPRPQEHPRP: the “shrunken log2 fold change” value was -0.0662.
Under RRIRVRPPRLPRPRPRPLMYPRP stands -0.564; under RRIRGRPPRLPRPRPRPDAPPRP, 1.9.
Take RRIRNRPPRLPRPRPRPILGPRP: the “shrunken log2 fold change” value is -0.00992.
For RRIRLRPPRLPRPRPRPFYMPRP, the “shrunken log2 fold change” value was -0.0545.
As for RRIRERPPRLPRPRPRPHYLPRP, the “shrunken log2 fold change” value was -0.139.
Turning to RRIRMRPPRLPRPRPRPDASPRP, the “shrunken log2 fold change” value is 2.43.
The value for RRIRHRPPRLPRPRPRPPWQPRP was -0.0158; that for RRIRWRPPRLPRPRPRPHNYPRP was -0.267; that for RRIRARPPRLPRPRPRPPKGPRP was 0.654.
For RRIRSRPPRLPRPRPRPARAPRP, the “shrunken log2 fold change” value stood at 0.985.
In the case of RRIRSRPPRLPRPRPRPAPAPRP, the “shrunken log2 fold change” value worked out at 0.741.
Take RRIRFRPPRLPRPRPRPLELPRP: the “shrunken log2 fold change” value worked out at 0.0344.
Turning to RRIRQRPPRLPRPRPRPRLMPRP, the “shrunken log2 fold change” value is 0.00478.
As for RRIRIRPPRLPRPRPRPGDSPRP, the “shrunken log2 fold change” value was 0.0577.
As to RRIRIRPPRLPRPRPRPRQSPRP, the “shrunken log2 fold change” value amounted to 0.065.
As for RRIRWRPPRLPRPRPRPYMDPRP, the “shrunken log2 fold change” value is -0.551.
As for RRIRTRPPRLPRPRPRPKWQPRP, the “shrunken log2 fold change” value was 0.0171.
In the case of RRIRPRPPRLPRPRPRPDMNPRP, the “shrunken log2 fold change” value is -0.268.
As to RRIRLRPPRLPRPRPRPYGFPRP, the “shrunken log2 fold change” value worked out at 0.00785.
As to RRIRDRPPRLPRPRPRPIFKPRP, the “shrunken log2 fold change” value is -0.118.
Turning to RRIRSRPPRLPRPRPRPHNCPRP, the “shrunken log2 fold change” value is -0.159.
As for RRIRARPPRLPRPRPRPLCNPRP, the “shrunken log2 fold change” value is -0.0439.
As for RRIRPRPPRLPRPRPRPHWQPRP, the “shrunken log2 fold change” value was found to be 0.358.
The value for RRIRKRPPRLPRPRPRPMRWPRP was 1.41.
Regarding RRIRFRPPRLPRPRPRPTAEPRP, the “shrunken log2 fold change” value worked out at 0.593.
As to RRIRVRPPRLPRPRPRPNDFPRP, the “shrunken log2 fold change” value is -0.0485.
The value for RRIRERPPRLPRPRPRPHHQPRP was -0.318.
For RRIRPRPPRLPRPRPRPGQEPRP, the “shrunken log2 fold change” value worked out at 0.031.
For RRIRERPPRLPRPRPRPIEKPRP, the “shrunken log2 fold change” value stood at 0.00242.
RRIRKRPPRLPRPRPRPRPFPRP: the “shrunken log2 fold change” value turned out to be 0.612.
On to RRIRPRPPRLPRPRPRPVCMPRP, for which the “shrunken log2 fold change” value amounted to 0.132.
Take RRIRIRPPRLPRPRPRPEDAPRP: the “shrunken log2 fold change” value is -0.0131.
The value for RRIRWRPPRLPRPRPRPGFCPRP was 0.524; that for RRIRYRPPRLPRPRPRPSEIPRP was -0.271.
RRIRQRPPRLPRPRPRPEMWPRP: the “shrunken log2 fold change” value came out at 0.483.
The value for RRIRVRPPRLPRPRPRPLDHPRP was -0.194.
In the case of RRIRCRPPRLPRPRPRPAHWPRP, the “shrunken log2 fold change” value turned out to be 0.337.
For the sequence RRIRHRPPRLPRPRPRPIVEPRP, the “shrunken log2 fold change” value was -0.133.
Under RRIRFRPPRLPRPRPRPIGTPRP stands -0.329.
As for RRIRSRPPRLPRPRPRPQEWPRP, the “shrunken log2 fold change” value was 0.0425.
In the case of RRIRWRPPRLPRPRPRPEYCPRP, the “shrunken log2 fold change” value came out at 1.23.
Regarding RRIRRRPPRLPRPRPRPCRCPRP, the “shrunken log2 fold change” value is -0.00341.
RRIRMRPPRLPRPRPRPPHSPRP: the “shrunken log2 fold change” value turned out to be 0.851.
Consider RRIRCRPPRLPRPRPRPRIIPRP, for which the “shrunken log2 fold change” value was -0.443.
Regarding RRIRFRPPRLPRPRPRPQHPPRP, the “shrunken log2 fold change” value was -0.326.
Under RRIRWRPPRLPRPRPRPWHMPRP stands 0.219; under RRIRGRPPRLPRPRPRPGLSPRP, 1.12; under RRIRIRPPRLPRPRPRPGFKPRP, -0.219.
As for RRIRRRPPRLPRPRPRPTRVPRP, the “shrunken log2 fold change” value stood at 0.952.
Turning to RRIRGRPPRLPRPRPRPEAHPRP, the “shrunken log2 fold change” value was 0.079.
On to RRIRHRPPRLPRPRPRPSNTPRP, for which the “shrunken log2 fold change” value is -0.278.
For RRIRSRPPRLPRPRPRPQIEPRP, the “shrunken log2 fold change” value came to 0.0319.
RRIRERPPRLPRPRPRPSHSPRP: the “shrunken log2 fold change” value was -1.37.
RRIRYRPPRLPRPRPRPCYSPRP: the “shrunken log2 fold change” value is -0.00871.
As for RRIRVRPPRLPRPRPRPRWSPRP, the “shrunken log2 fold change” value was found to be 0.209.
As to RRIRMRPPRLPRPRPRPNCHPRP, the “shrunken log2 fold change” value is 0.0305.
As to RRIRARPPRLPRPRPRPQSWPRP, the “shrunken log2 fold change” value is 0.322.
The value for RRIRVRPPRLPRPRPRPWQWPRP was -0.0592; that for RRIRARPPRLPRPRPRPLLLPRP was 0.313; that for RRIRPRPPRLPRPRPRPYRNPRP was -0.558.
RRIRWRPPRLPRPRPRPQRAPRP: the “shrunken log2 fold change” value is 0.66.
Turning to RRIRCRPPRLPRPRPRPPNPPRP, the “shrunken log2 fold change” value worked out at 0.761.
For the sequence RRIRARPPRLPRPRPRPRPGPRP, the “shrunken log2 fold change” value came out at 0.814.
With RRIRARPPRLPRPRPRPPHNPRP, the “shrunken log2 fold change” value amounted to 0.757.
Turning to RRIRCRPPRLPRPRPRPVNEPRP, the “shrunken log2 fold change” value was -0.266.
Under RRIRGRPPRLPRPRPRPFHCPRP stands -0.36.
Regarding RRIRMRPPRLPRPRPRPHHHPRP, the “shrunken log2 fold change” value is -0.412.
Consider RRIRVRPPRLPRPRPRPHFWPRP, for which the “shrunken log2 fold change” value was -0.158.
As for RRIRKRPPRLPRPRPRPYDTPRP, the “shrunken log2 fold change” value is -0.246.
In the case of RRIRARPPRLPRPRPRPHMGPRP, the “shrunken log2 fold change” value was found to be 0.0766.
Turning to RRIRCRPPRLPRPRPRPHLDPRP, the “shrunken log2 fold change” value is -0.0622.
RRIRQRPPRLPRPRPRPRQNPRP: the “shrunken log2 fold change” value stood at 0.402.
As to RRIRCRPPRLPRPRPRPGIEPRP, the “shrunken log2 fold change” value was -0.0627.
RRIRPRPPRLPRPRPRPNKAPRP: the “shrunken log2 fold change” value was 0.0279.
The value for RRIRKRPPRLPRPRPRPDYNPRP was -0.0745; that for RRIRNRPPRLPRPRPRPSCEPRP was -0.229.
The value for RRIRQRPPRLPRPRPRPSRIPRP was -0.305; that for RRIRKRPPRLPRPRPRPLQFPRP was -0.076.
Consider RRIRNRPPRLPRPRPRPVKYPRP, for which the “shrunken log2 fold change” value was -0.288.
Under RRIRGRPPRLPRPRPRPLMAPRP stands 1.39.
As for RRIRSRPPRLPRPRPRPEQWPRP, the “shrunken log2 fold change” value was found to be 0.172.
Take RRIRSRPPRLPRPRPRPLSEPRP: the “shrunken log2 fold change” value is -0.48.
As for RRIRKRPPRLPRPRPRPLGKPRP, the “shrunken log2 fold change” value was 0.39.
As for RRIRIRPPRLPRPRPRPFKTPRP, the “shrunken log2 fold change” value turned out to be 0.0132.
As to RRIRWRPPRLPRPRPRPMGDPRP, the “shrunken log2 fold change” value stood at 0.676.
Regarding RRIRHRPPRLPRPRPRPRRFPRP, the “shrunken log2 fold change” value was determined as 0.379.
Turning to RRIRQRPPRLPRPRPRPRAVPRP, the “shrunken log2 fold change” value turned out to be 2.78.
Under RRIRSRPPRLPRPRPRPKSNPRP stands -0.347; under RRIRGRPPRLPRPRPRPGYKPRP, 0.191.
In the case of RRIRCRPPRLPRPRPRPGSMPRP, the “shrunken log2 fold change” value was -0.24.
For the sequence RRIRWRPPRLPRPRPRPIWTPRP, the “shrunken log2 fold change” value worked out at 0.107.
With RRIRMRPPRLPRPRPRPQWAPRP, the “shrunken log2 fold change” value was -0.0175.
Take RRIRFRPPRLPRPRPRPQEDPRP: the “shrunken log2 fold change” value worked out at 0.0325.
In the case of RRIRHRPPRLPRPRPRPFGPPRP, the “shrunken log2 fold change” value is -0.247.
Turning to RRIRDRPPRLPRPRPRPGWNPRP, the “shrunken log2 fold change” value turned out to be 0.69.
The value for RRIRKRPPRLPRPRPRPAGEPRP was 0.0321; that for RRIRHRPPRLPRPRPRPTKRPRP was -0.0644; that for RRIRRRPPRLPRPRPRPRPTPRP was 0.821.
Consider RRIRMRPPRLPRPRPRPTEPPRP, for which the “shrunken log2 fold change” value was determined as 0.383.
Consider RRIRRRPPRLPRPRPRPVFVPRP, for which the “shrunken log2 fold change” value turned out to be 0.292.
For RRIRMRPPRLPRPRPRPTQGPRP, the “shrunken log2 fold change” value is 0.805.
The value for RRIRMRPPRLPRPRPRPNEKPRP was 0.0356.
As to RRIRRRPPRLPRPRPRPQPGPRP, the “shrunken log2 fold change” value was 0.264.
The value for RRIRARPPRLPRPRPRPTMAPRP was 0.6; that for RRIRPRPPRLPRPRPRPRWRPRP was 0.542.
For RRIRFRPPRLPRPRPRPKKIPRP, the “shrunken log2 fold change” value is -0.028.
Under RRIRYRPPRLPRPRPRPERWPRP stands 0.44.
Consider RRIRIRPPRLPRPRPRPPYFPRP, for which the “shrunken log2 fold change” value is -0.25.
For RRIRCRPPRLPRPRPRPENHPRP, the “shrunken log2 fold change” value is -0.415.
As to RRIRNRPPRLPRPRPRPSSKPRP, the “shrunken log2 fold change” value was -0.244.
Turning to RRIRNRPPRLPRPRPRPYEEPRP, the “shrunken log2 fold change” value is -0.277.
For RRIRFRPPRLPRPRPRPSPCPRP, the “shrunken log2 fold change” value was -0.508.
In the case of RRIRARPPRLPRPRPRPCWHPRP, the “shrunken log2 fold change” value stood at 0.134.
On to RRIRLRPPRLPRPRPRPRYNPRP, for which the “shrunken log2 fold change” value is -0.093.
Consider RRIRMRPPRLPRPRPRPRNCPRP, for which the “shrunken log2 fold change” value came out at 0.0629.
With RRIRHRPPRLPRPRPRPITLPRP, the “shrunken log2 fold change” value is 0.0184.
For RRIRIRPPRLPRPRPRPTGPPRP, the “shrunken log2 fold change” value was -0.0249.
With RRIRTRPPRLPRPRPRPMASPRP, the “shrunken log2 fold change” value came out at 0.0589.
On to RRIRERPPRLPRPRPRPGMQPRP, for which the “shrunken log2 fold change” value is -0.328.
On to RRIRTRPPRLPRPRPRPHVTPRP, for which the “shrunken log2 fold change” value is -0.15.
As to RRIRHRPPRLPRPRPRPADLPRP, the “shrunken log2 fold change” value was -0.0314.
Take RRIRDRPPRLPRPRPRPHKEPRP: the “shrunken log2 fold change” value is -0.00521.
As for RRIRHRPPRLPRPRPRPSKVPRP, the “shrunken log2 fold change” value is -0.146.
As to RRIRWRPPRLPRPRPRPELTPRP, the “shrunken log2 fold change” value came out at 0.772.
